What is called IC50 is the concentration needed to halve the response being measured. Broadly, the Km is the concentration of substrate that gives half-maximal velocity. Usually kcat stands for the number of substrate molecules converted per active site and unit of time at saturation. Broadly, the EC50 is the concentration that produces a half-maximal response.

One series deals with T1, NEPv (NEP G399V/G714K) (Homo sapiens, UniProt P08473, G400V/G715K).
T1 construct: DNA encoding amino acids 52–749 of human NEP variants was amplified by PCR; made in house; host or cells: CHO suspension cells (transient, secreted)
T1 sequence (P08473 53-750 G400V/G715K): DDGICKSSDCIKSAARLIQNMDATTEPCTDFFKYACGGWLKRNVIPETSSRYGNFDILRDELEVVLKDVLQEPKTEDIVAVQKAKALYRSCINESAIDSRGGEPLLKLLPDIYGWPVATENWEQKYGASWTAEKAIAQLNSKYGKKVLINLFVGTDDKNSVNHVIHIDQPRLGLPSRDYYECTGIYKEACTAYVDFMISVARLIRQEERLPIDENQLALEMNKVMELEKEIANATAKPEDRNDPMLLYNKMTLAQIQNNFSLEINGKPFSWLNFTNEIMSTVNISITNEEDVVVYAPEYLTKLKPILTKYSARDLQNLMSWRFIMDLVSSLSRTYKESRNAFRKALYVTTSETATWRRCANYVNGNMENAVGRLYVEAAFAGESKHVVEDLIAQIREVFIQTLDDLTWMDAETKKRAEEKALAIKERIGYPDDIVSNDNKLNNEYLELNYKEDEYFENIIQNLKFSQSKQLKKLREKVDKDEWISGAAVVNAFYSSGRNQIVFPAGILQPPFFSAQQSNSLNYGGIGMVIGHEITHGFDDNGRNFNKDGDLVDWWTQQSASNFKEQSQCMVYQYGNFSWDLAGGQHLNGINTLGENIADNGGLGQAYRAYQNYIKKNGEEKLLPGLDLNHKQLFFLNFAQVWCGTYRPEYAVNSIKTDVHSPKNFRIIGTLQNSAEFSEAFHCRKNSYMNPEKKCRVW
The experiment in a line: Inhibition of Aβ1–40 cleavage activity, fluorescence polarisation. It is filed as biochemical. On the procedure:
(§1) The effect of inhibitors on NEP activity was determined using the above fluorescence polarisation assay to measure the rate of Aβ1–40 cleavage with a substrate concentration of 10 µM, an enzyme concentration of 20 nM and inhibitor concentrations in the range 2 nM to 100 µM.
On the technique in general: In fluorescence polarisation assays a small probe gives low polarisation when free and higher when bound to something large.

A further series concerns the target T2, wild-type NEP (Homo sapiens, UniProt P08473).
T2 construct: DNA encoding amino acids 52–749 of human NEP variants was amplified by PCR; made in house; host or cells: CHO suspension cells (transient, secreted)
Described as above. The settings on record: enzyme wild-type NEP 20 nM; Aβ1–40 substrate 10 µM. It is filed as biochemical. The protocol:
as §1

In the next series the target is NEP G399V (Homo sapiens, UniProt P08473, G400V). The experiment in a line: biochemical. The protocol: as §1
Sequence of NEP G399V (P08473 53-750 G400V): as the sequence (P08473 53-750 G400V/G715K) above, with K663G counted along it
In another series the target is NEP G714K (Homo sapiens, UniProt P08473, G715K). The experiment in a line: biochemical. On the procedure:
as §1

A further series deals with ANP. The experiment in a line: Steady-state kinetics of peptide cleavage, fluorescence polarisation. It is filed as biochemical. The settings on record: substrate ANP; 37°C, pH 7.4. The protocol: (§2) For detailed kinetic characterisation of peptide cleavage by NEP, a similar assay to that above was used with modifications based on a published method. Peptides were synthesised by Bachem using 9-fluorenylmethyloxycarbonyl solid-phase peptide synthesis and were labelled with a N-terminal 5(6)FAM via a ε-aminocaproic acid linker and a C-terminal biotin via a lysine linker (Table S1). Purified peptides were supplied as trifluoroacetate salts with a purity ≥95%. The assay was performed in a 96-well microtitre plate and contained 50 mM HEPES (pH 7.4), 100 mM NaCl, 0.05% (w/v) BSA (Buffer A), 1–200 µM peptide substrate and 1–500 nM NEP protein. Reactions were incubated at 37°C before being stopped at various time points between 2 and 360 min by transferring 5 µL aliquots to 245 µL Buffer A containing 2 mM 1,10-phenanethroline (Sigma) and 2 µM avidin (Invitrogen). For peptide substrates containing disulphide bonds, 1 mM tris(2-carboxyethyl)phosphine (Thermo Scientific) was added to the stop solution. The fluorescence polarisation of the resulting solution was measured on a Victor plate reader and the amount of substrate cleaved was determined with reference to substrate-only controls with and without avidin. Initial rates were obtained by linear regression of the linear regions of time courses. Enzyme velocity was plotted as a function of substrate concentration and the Michaelis-Menten equation was used to fit the data, giving the parameters kcat and KM.

The test system of another series is Angiotensin. Described as above. The class given is biochemical. As to conditions: substrate Angiotensin; 37°C, pH 7.4. On the procedure:
as §2

A further series deals with Arg-vasopressin. The description is as above. As to conditions: substrate Arg-vasopressin; 37°C, pH 7.4. The class given is biochemical. On the procedure:
as §2

The test system of series [1] is Aβ1–40. Described as above. The class given is biochemical. As to conditions: substrate Aβ 1–40; 37°C, pH 7.4. The protocol:
as §2

In the next series the test system is Bradykinin. Described as above. The class given is biochemical. As to conditions: substrate Bradykinin; 37°C, pH 7.4. On the procedure: as §2
The next series has as its system GLP-1. Described as above. It is filed as biochemical. As to conditions: substrate GLP-1; 37°C, pH 7.4. On the procedure: as §2
Another series deals with GRP. The description is as above. It is filed as biochemical. The settings on record: substrate GRP; 37°C, pH 7.4. On the procedure: as §2
The next series deals with Glucagon. The series is described as above. As to conditions: substrate Glucagon; 37°C, pH 7.4. It is filed as biochemical. The protocol: as §2
The next series concerns Neurokinin A. Described as above. The class given is biochemical. The settings on record: substrate Neurokinin A; 37°C, pH 7.4. On the procedure: as §2
Another series has as its system Neurokinin B. The series is described as above. The settings on record: substrate Neurokinin B; 37°C, pH 7.4. The class given is biochemical. On the procedure:
as §2

A further series concerns Neurotensin. The description is as above. It is filed as biochemical. The settings on record: substrate Neurotensin; 37°C, pH 7.4. The protocol: as §2
The subject of another series is Nociceptin. The description is as above. The class given is biochemical. As to conditions: substrate Nociceptin; 37°C, pH 7.4. On the procedure: as §2
For another series, the system named is Somatostatin 14. The series is described as above. It is filed as biochemical. As to conditions: substrate Somatostatin 14; 37°C, pH 7.4. The protocol: as §2
The next series deals with Substance P. Described as above. The class given is biochemical. The settings on record: substrate Substance P; 37°C, pH 7.4. The protocol: as §2
For a further series, the system named is α-endorphin. The series is described as above. The settings on record: substrate α-endorphin; 37°C, pH 7.4. It is filed as biochemical. On the procedure:
as §2

Another series has as its system γ-endorphin. The description is as above. The settings on record: substrate γ-endorphin; 37°C, pH 7.4. The class given is biochemical. The protocol:
as §2

A further series deals with Endothelin-1. The series is described as follows: Steady-state kinetics of endothelin-1 cleavage, stopped assay with RP-HPLC. The class given is biochemical. As to conditions: substrate Endothelin-1 (unlabelled); RP-HPLC, 10 min at 37°C. On the procedure:
Kinetic parameters for cleavage of endothelin-1 by NEP were determined using a stopped assay in which the amount of substrate cleaved was measured using reversed-phase HPLC (RP-HPLC). Endothelin-1 was incubated at 12.5–200 µM in the presence of wild type NEP or NEPv and reactions were stopped after 10 min at 37°C by the addition of an equal volume of 1∶1∶1 water:acetonitrile:TFA containing 2 mM tris(2-carboxyethyl)phosphine (Thermo Scientific). RP-HPLC spectra were recorded using an Agilent 1260 Infinity system. Injections of 20 µL were made for each sample and analytes were separated by elution on an Agilent Polaris C8-A stationary phase column (4.6×100 mm, 3 µm) at 1.5 mL min^−1 using a linear binary gradient of 10–90% acetonitrile in water with 0.1% (v/v) TFA over 15 minutes at 40°C. Signal intensity for intact endothelin-1 was monitored at 210 nm and relative peak area was determined by manual integration of the baseline. Kinetic parameters were derived from the activity data as described above.

Series [2] concerns Aβ1–40. The experiment in a line: Endpoint degradation assay with ELISA read-out. The class given is biochemical, human. As to conditions: 1 hour at room temperature; Aβ40 ELISA. On the procedure: (§3) Supplementary file pone.0104001.s001.tif: Figure S1 Degradation of Aβ1–40 and Aβ1–42 by NEP wild-type and NEPv. Measurement of the degredation of Aβ1–40 (A) and Aβ1–42 (B) was performed by incubating peptide and either wild-type NEP (▪) or NEPv (Δ) for 1 hour at room temperature. The reaction was stopped by the addition of 1.10-phenanthroline to a final concentration of 10 µM. 50 µl (Aβ40 analysis) or 100 µl (Aβ42 analysis) of the reaction mix was transferred to an ELISA plate. Aβ40 and Aβ42 concentrations after degradation were determined using Invitrogen human Aβ40 ELISA kit (Invitrogen, California, US), and Innotest β-amyloid RUO (1–42) ELISA (Innogenetics, Gent, Belgium). […] (TIF) Click here for additional data file.
Background: ELISA stands for enzyme-linked immunosorbent assay.

For a further series, the target named is T3, Aβ1–42 (Homo sapiens, UniProt P05067).
T3 construct: Aβ 1-42^a
T3 sequence (P05067 672-713): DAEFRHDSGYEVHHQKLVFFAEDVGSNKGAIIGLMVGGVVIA
The series is described as follows: Endpoint degradation assay with ELISA read-out. The class given is biochemical. The settings on record: 1 hour at room temperature; Aβ42 ELISA. On the procedure: as §3

Sequence of NEP G714K (P08473 53-750 G715K): as the sequence (P08473 53-750 G400V/G715K) above, with V348G counted along it
T2 sequence (P08473 53-750): as the sequence (P08473 53-750 G400V/G715K) above, with V348G, K663G counted along it

In the case of `CC(C)C[C@H](NP(=O)(O)O[C@@H]1O[C@@H](C)[C@H](O)[C@@H](O)[C@H]1O)C(=O)N[C@@H](Cc1c[nH]c2ccccc12)C(=O)O` [Phosphoramidon, phosphoramidon], the “potency lower on NEPv than for wild-type NEP” value at NEPv (NEP G399V/G714K) (NEPv versus wild-type NEP) was above 2000 fold. Besides, the IC50 is 21000 nM against NEPv (NEP G399V/G714K) (enzyme NEPv 20 nM, Aβ1–40 substrate 10 µM); below 10 nM against wild-type NEP; 610 nM on NEP G399V; 100 nM against NEP G714K.

B1: wild-type NEP: soluble extracellular domain (amino acids 52–749) of wild type human NEP (neprilysin), tagged, recombinantly expressed (protein, UniProt P08473 52-749, looked up, fragment)
chain: YDDGICKSSDCIKSAARLIQNMDATTEPCTDFFKYACGGWLKRNVIPETSSRYGNFDILRDELEVVLKDVLQEPKTEDIVAVQKAKALYRSCINESAIDSRGGEPLLKLLPDIYGWPVATENWEQKYGASWTAEKAIAQLNSKYGKKVLINLFVGTDDKNSVNHVIHIDQPRLGLPSRDYYECTGIYKEACTAYVDFMISVARLIRQEERLPIDENQLALEMNKVMELEKEIANATAKPEDRNDPMLLYNKMTLAQIQNNFSLEINGKPFSWLNFTNEIMSTVNISITNEEDVVVYAPEYLTKLKPILTKYSARDLQNLMSWRFIMDLVSSLSRTYKESRNAFRKALYGTTSETATWRRCANYVNGNMENAVGRLYVEAAFAGESKHVVEDLIAQIREVFIQTLDDLTWMDAETKKRAEEKALAIKERIGYPDDIVSNDNKLNNEYLELNYKEDEYFENIIQNLKFSQSKQLKKLREKVDKDEWISGAAVVNAFYSSGRNQIVFPAGILQPPFFSAQQSNSLNYGGIGMVIGHEITHGFDDNGRNFNKDGDLVDWWTQQSASNFKEQSQCMVYQYGNFSWDLAGGQHLNGINTLGENIADNGGLGQAYRAYQNYIKKNGEEKLLPGLDLNHKQLFFLNFAQVWCGTYRPEYAVNSIKTDVHSPGNFRIIGTLQNSAEFSEAFHCRKNSYMNPEKKCRV
modifications: extracellular domain tag
notes: soluble extracellular domain (amino acids 52–749) of wild type human NEP (neprilysin), tagged, recombinantly expressed
As for B1, the Km was determined as 8.4 ± 0.8 µM in the series on ANP; 8.6 ± 0.9 µM with Angiotensin; 6.2 ± 1 µM in the series on Arg-vasopressin; 104 ± 20 µM in the series on Aβ1–40 [1]; 32 ± 5 µM in the series on Bradykinin; 24 ± 4 µM in the series with GLP-1. For the same molecule, the Km with GRP amounted to 150 ± 30 µM; in the series with Glucagon it was 25 ± 5 µM; in the series with Neurokinin A it was 9.3 ± 1 µM; with Neurokinin B, 22 ± 2 µM; with Neurotensin it was 16 ± 2 µM; in the series with Nociceptin it was 20 ± 1 µM. In addition, the Km came to 7.4 ± 0.9 µM in the series with Somatostatin 14; 16 ± 1 µM in the series on Substance P; 24 ± 0.5 µM with α-endorphin; 13 ± 1 µM with γ-endorphin; 53 ± 10 µM in the series on Endothelin-1. Moreover, the kcat was determined as 7.1 ± 0.2 s⁻¹ with ANP; 8.2 ± 0.3 s⁻¹ in the series on Angiotensin; 2.8 ± 0.2 s⁻¹ in the series with Arg-vasopressin; 0.83 ± 0.1 s⁻¹ with Aβ1–40 [1]; 16 ± 1 s⁻¹ in the series on Bradykinin; 3.3 ± 0.3 s⁻¹ with GLP-1. In addition, the kcat in the series with GRP came to 26 ± 4 s⁻¹; in the series on Glucagon, 4.5 ± 0.4 s⁻¹; with Neurokinin A, 17 ± 0.7 s⁻¹; in the series with Neurokinin B it was 20 ± 0.8 s⁻¹; with Neurotensin, 13 ± 0.6 s⁻¹; in the series with Nociceptin it was 11 ± 0.3 s⁻¹. Besides, the kcat in the series on Somatostatin 14 was determined as 32 ± 1 s⁻¹; in the series with Substance P, 18 ± 0.6 s⁻¹; with α-endorphin, 8.9 ± 0.08 s⁻¹; in the series with γ-endorphin it was 4.8 ± 0.2 s⁻¹; with Endothelin-1, 0.68 ± 0.06 s⁻¹. The EC50 came to 243 nM in the series on Aβ1–40 [2] and 144 nM with Aβ1–42.

Source of the values: PMC4121237, “Engineering Neprilysin Activity and Specificity to Create a Novel Therapeutic for Alzheimer’s Disease” (PLoS ONE, 2014).
